Measurements as given in PMC10971408.
Several values for one entry are separate records, joined by “and”; a condition that tells them apart may be missing. Equal values may be shown once.

Target: Cys101 (UniProt position 101, YVTSVCTGSLV)
Experiment: crystallography
Details: data collected at 100 K; crystals grown at 20°C; 200 mM MgCl2 in reservoir; 100 mM tris-HCl (pH 8.3), sodium citrate (pH 6.0), or sodium acetate (pH 4.2, 5.0, 5.4); 23% PEG 3350, 2 mM DTT; substrate-free wild-type enzyme in crystals, reduced Cys101 (DTT present)

Isocyanide hydratase (ICH, PfICH) (Pseudomonas fluorescens)
pKa: 5.7 and 5 to 6
